Experimental data as given in patent publication US11498974 (BIOARCTIC, dated 2022).

Tests used:
Aβ protofibrils = Aβ protofibrils (UniProt P05067); assay: inhibition ELISA; reference: Aβ monomers
[1] = target: recombinant transferrin receptor protein (Sinobiological) (UniProt Q62351); assay: competition TfR ELISA; references: 8D3 and 8D3-F(ab′)2-h158
[2] = target: recombinant transferrin receptor protein (Sinobiological) (UniProt Q62351); assay: competition ELISA on coated recombinant TfR; competitor 2.5 nM biotinylated scFv8D3
[3] = target: recombinant transferrin receptor protein (Sinobiological) (UniProt Q62351); assay: TfR competition ELISA, FIG. 2D; reference: RmAb158-scFv8D3
[4] = target: recombinant transferrin receptor protein (Sinobiological) (UniProt Q62351); assay: competition TfR ELISA; reference: RmAb158-scFv8D3
[5] = target: T1, recombinant transferrin receptor protein (Sinobiological) (UniProt Q62351 89-763, limits assumed); assay: TfR competition ELISA, FIG. 2D; reference: RmAb158-scFv8D3
T1 construct: Construct limits are unknown; also called TfR; recombinant TfR protein

[6] = target: T1, recombinant transferrin receptor …; assay: competition ELISA on coated recombinant TfR; competitor 2.5 nM biotinylated scFv8D3

recombinant transferrin receptor protein (Sinobiological) (UniProt Q62351), sequence (Q62351 89-763 limits assumed): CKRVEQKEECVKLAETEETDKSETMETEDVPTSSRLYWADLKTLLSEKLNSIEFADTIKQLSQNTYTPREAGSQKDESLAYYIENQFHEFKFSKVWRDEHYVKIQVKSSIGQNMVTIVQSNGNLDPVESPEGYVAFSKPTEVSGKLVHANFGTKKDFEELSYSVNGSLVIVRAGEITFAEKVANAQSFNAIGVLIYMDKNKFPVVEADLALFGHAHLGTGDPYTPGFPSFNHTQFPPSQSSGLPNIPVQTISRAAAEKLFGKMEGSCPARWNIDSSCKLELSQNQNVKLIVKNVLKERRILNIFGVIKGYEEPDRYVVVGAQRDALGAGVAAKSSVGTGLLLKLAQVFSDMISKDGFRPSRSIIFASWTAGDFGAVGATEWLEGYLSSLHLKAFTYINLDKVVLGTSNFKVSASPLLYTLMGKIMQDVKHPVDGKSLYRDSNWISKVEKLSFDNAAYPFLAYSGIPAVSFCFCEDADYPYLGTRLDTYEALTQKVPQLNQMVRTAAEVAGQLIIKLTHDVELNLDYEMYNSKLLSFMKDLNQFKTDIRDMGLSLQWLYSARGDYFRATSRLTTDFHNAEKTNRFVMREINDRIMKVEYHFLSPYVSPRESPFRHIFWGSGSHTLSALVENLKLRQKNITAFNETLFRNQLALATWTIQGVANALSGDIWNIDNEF
T1 sequence (Q62351 89-763 limits assumed): as above

Q: Which fold stronger binding to protofibrils than to monomers (Aβ protofibrils) does the source give for RmAb158-scFv8D3 (bispecific antibody) here?
A: 500 fold

Q: And the fold lower avidity [1]?
A: 10 fold

Q: What about the Kd [2] of the same molecule?
A: 8 nM

Q: For “chemically conjugated fusion protein 8D3-F(ab′)2-h158 (bispecific antibody)”, which fold stronger binding [3] is on record?
A: 10 fold

Q: What about the Kd [2] of the same molecule?
A: 0.69 nM

Q: How did the fold higher Kd [4] turn out when scFv8D3 was run?
A: 2 fold

Q: What about the Kd [2] of the same molecule?
A: 15 nM

B1: anti-TfR antibody 8D3 (antibody, V domains shown)
VH: EVQLVESGGGLVQPGNSLTLSCVASGFTFSNYGMHWIRQAPKKGLEWIAMIYYDSSKMNYADTVKGRFTISRDNSKNTLYLEMNSLRSEDTAMYYCAVPTSHYVVDVWGQGVSVTVSS
VL: DIQMTQSPASLSASLEEIVTITCQASQDIGNWLAWYQQKPGKSPQLLIYGATSLADGVPSRFSGSRSGTQFSLKISRVQVEDIGIYYCLQAYNTPWTFGGGTKLELK
Q: Which fold stronger binding [5] does the source give for B1 here?
A: ~10 fold

Q: What about the Kd [6] of the same molecule?
A: 0.8 nM
